Source: patent US20140274782A1, “AFFINITY REAGENTS AND METHODS FOR DETECTION, PURIFICATION, AND PROTEOMIC ANALYSIS OF METHYLATED PROTEINS” (The Board of Trustees of the Leland Stanford Junior …, priority 2013, published 2014)
Values belong to the molecule of their own block, whether it stands above or below them.

Assays:
G9a and GLP [1] = target: T1, G9a and GLP (Homo sapiens, UniProt Q96KQ7+Q9H9B1); test: Triple SILAC pull-down after UNC0638 treatment of 293T cells, DMSO/UNC0638 ratio of protein captured by 3×MBT; format: cell-based; design: cells were treated for 24 hours with UNC0638 at 2.5 μM or DMSO vehicle control; endogenous in cells; host or cells: HEK 293T; conditions: 293T cells;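 note: mass spectrometry (Q-Exactive) SILAC quantitation, DMSO/UNC0638 ratio computed after subtracting 3×MBTD355N mutant pull-down background, only proteins with at least twofold 3×MBT over mutant signal considered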
T1 sequence (Q96KQ7 2-1210 limits assumed): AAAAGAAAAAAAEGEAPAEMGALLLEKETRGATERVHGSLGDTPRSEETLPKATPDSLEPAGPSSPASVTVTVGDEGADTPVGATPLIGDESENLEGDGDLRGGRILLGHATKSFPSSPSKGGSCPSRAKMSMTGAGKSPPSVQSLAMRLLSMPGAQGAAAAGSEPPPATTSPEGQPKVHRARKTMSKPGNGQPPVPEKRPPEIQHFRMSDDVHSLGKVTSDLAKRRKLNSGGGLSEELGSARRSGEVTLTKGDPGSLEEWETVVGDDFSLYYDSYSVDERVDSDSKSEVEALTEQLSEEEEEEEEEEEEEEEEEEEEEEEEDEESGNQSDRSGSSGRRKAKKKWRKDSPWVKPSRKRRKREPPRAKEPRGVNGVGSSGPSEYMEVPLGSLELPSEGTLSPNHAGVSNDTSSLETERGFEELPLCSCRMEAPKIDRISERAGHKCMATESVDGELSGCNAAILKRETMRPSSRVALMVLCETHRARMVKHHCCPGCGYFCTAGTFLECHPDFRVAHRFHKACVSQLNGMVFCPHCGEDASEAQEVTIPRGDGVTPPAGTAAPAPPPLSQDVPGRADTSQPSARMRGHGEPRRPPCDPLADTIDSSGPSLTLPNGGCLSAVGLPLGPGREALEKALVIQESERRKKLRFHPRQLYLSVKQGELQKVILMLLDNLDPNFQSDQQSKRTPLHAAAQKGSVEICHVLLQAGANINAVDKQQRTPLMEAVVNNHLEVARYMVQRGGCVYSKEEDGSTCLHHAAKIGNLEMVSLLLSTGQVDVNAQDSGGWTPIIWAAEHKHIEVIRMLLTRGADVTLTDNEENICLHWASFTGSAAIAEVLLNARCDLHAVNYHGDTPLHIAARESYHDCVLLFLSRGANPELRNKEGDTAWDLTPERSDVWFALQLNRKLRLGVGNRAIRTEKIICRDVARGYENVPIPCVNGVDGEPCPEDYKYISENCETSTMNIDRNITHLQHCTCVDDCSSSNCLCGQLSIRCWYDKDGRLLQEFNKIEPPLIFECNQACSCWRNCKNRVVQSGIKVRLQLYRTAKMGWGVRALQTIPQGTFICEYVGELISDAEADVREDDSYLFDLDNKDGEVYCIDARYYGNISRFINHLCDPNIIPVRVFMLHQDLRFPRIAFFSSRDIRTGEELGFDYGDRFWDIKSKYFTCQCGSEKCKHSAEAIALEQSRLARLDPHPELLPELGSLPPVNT
T1 sequence (Q9H9B1 2-1298 limits assumed): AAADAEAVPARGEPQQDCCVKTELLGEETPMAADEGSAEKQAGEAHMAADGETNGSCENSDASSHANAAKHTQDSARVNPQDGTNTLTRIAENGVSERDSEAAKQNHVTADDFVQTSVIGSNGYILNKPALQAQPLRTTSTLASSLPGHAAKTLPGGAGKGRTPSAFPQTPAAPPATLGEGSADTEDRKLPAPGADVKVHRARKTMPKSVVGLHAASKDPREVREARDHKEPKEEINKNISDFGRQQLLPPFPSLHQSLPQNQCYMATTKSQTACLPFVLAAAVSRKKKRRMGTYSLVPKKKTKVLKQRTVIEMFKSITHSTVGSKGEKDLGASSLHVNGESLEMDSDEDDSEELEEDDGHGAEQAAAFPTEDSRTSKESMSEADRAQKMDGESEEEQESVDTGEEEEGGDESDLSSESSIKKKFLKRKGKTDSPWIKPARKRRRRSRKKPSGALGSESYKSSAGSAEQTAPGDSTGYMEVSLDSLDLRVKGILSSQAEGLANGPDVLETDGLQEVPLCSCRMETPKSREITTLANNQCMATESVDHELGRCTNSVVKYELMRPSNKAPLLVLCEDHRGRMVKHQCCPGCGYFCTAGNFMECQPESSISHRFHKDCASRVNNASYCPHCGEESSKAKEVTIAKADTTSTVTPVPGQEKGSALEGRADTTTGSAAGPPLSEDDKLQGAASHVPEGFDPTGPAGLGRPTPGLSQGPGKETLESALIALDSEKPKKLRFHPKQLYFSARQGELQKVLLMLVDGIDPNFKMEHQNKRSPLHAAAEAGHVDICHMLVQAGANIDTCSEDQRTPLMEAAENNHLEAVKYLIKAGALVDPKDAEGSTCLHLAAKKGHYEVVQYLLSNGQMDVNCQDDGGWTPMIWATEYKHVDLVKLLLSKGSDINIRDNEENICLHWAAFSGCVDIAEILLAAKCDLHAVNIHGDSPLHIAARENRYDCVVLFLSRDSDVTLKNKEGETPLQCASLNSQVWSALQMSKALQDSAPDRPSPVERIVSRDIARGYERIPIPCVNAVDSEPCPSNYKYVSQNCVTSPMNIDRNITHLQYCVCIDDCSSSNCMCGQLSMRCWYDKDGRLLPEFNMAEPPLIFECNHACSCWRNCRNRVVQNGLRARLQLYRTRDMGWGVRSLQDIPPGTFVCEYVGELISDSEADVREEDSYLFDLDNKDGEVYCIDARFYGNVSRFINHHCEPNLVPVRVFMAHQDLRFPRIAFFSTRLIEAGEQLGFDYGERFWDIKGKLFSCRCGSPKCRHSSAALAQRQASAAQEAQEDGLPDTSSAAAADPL

G9a and GLP [2] = target: T1, G9a and GLP; test: as above; format: cell-based; design: endogenous in cells; host or cells: HEK 293T; conditions: for Relative to UNC0638 UNC Heavy / Relative to UNC0638 UNC Light: SILAC ratio DMSO/UNC0638 of protein pulled down with 3xMBT; for Relative to UNC0638 UNC Heavy: UNC0638 in heavy SILAC media; for Relative to UNC0638 UNC Light: UNC0638 in light SILAC media; for Relative to UNC0638 Average: average of UNC Light and UNC Heavy experiments
3×MBT domain of L3MBTL1 = test: Triple SILAC pull-down, 3xMBT/3xMBTD355N ratio (cytoplasmic, nuclear and chromatin fractions of 293T cells); format: binding, human; conditions: SILAC ratio, pull-down 3xMBT vs 3xMBTD355N; for 3xMBT/D355N UNC Heavy: experiment with UNC0638 in heavy SILAC media; for 3xMBT/D355N UNC Light: experiment with UNC0638 in light SILAC media;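 for all read-outs here: proteins quantified with MaxQuant, requiring at least two unique peptides and quantification in both label directions, normalized to the mean of proteins from a digested loading control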

change in amount captured by 3×MBT following UNC0638 treatment (G9a and GLP [1]): decreased strongly
B1: ACIN1: a known G9a substrate (protein, UniProt Q9UKV3 1-1341, looked up)
Apoptotic chromatin …: MWRRKHPRTSGGTRGVLSGNRGVEYGSGRGHLGTFEGRWRKLPKMPEAVGTDPSTSRKMAELEEVTLDGKPLQALRVTDLKAALEQRGLAKSGQKSALVKRLKGALMLENLQKHSTPHAAFQPNSQIGEEMSQNSFIKQYLEKQQELLRQRLEREAREAAELEEASAESEDEMIHPEGVASLLPPDFQSSLERPELELSRHSPRKSSSISEEKGDSDDEKPRKGERRSSRVRQARAAKLSEGSQPAEEEEDQETPSRNLRVRADRNLKTEEEEEEEEEEEEDDEEEEGDDEGQKSREAPILKEFKEEGEEIPRVKPEEMMDERPKTRSQEQEVLERGGRFTRSQEEARKSHLARQQQEKEMKTTSPLEEEEREIKSSQGLKEKSKSPSPPRLTEDRKKASLVALPEQTASEEETPPPLLTKEASSPPPHPQLHSEEEIEPMEGPAPAVLIQLSPPNTDADTRELLVSQHTVQLVGGLSPLSSPSDTKAESPAEKVPEESVLPLVQKSTLADYSAQKDLEPESDRSAQPLPLKIEELALAKGITEECLKQPSLEQKEGRRASHTLLPSHRLKQSADSSSSRSSSSSSSSSRSRSRSPDSSGSRSHSPLRSKQRDVAQARTHANPRGRPKMGSRSTSESRSRSRSRSRSASSNSRKSLSPGVSRDSSTSYTETKDPSSGQEVATPPVPQLQVCEPKERTSTSSSSVQARRLSQPESAEKHVTQRLQPERGSPKKCEAEEAEPPAATQPQTSETQTSHLPESERIHHTVEEKEEVTMDTSENRPENDVPEPPMPIADQVSNDDRPEGSVEDEEKKESSLPKSFKRKISVVSATKGVPAGNSDTEGGQPGRKRRWGASTATTQKKPSISITTESLKSLIPDIKPLAGQEAVVDLHADDSRISEDETERNGDDGTHDKGLKICRTVTQVVPAEGQENGQREEEEEEKEPEAEPPVPPQVSVEVALPPPAEHEVKKVTLGDTLTRRSISQQKSGVSITIDDPVRTAQVPSPPRGKISNIVHISNLVRPFTLGQLKELLGRTGTLVEEAFWIDKIKSHCFVTYSTVEEAVATRTALHGVKWPQSNPKFLCADYAEQDELDYHRGLLVDRPSETKTEEQGIPRPLHPPPPPPVQPPQHPRAEQREQERAVREQWAEREREMERRERTRSEREWDRDKVREGPRSRSRSRDRRRKERAKSKEKKSEKKEKAQEEPPAKLLDDLFRKTKAAPCIYWLPLTDSQIVQKEAERAERAKEREKRRKEQEEEEQKEREKEAERERNRQLEREKRREHSRERDRERERERERDRGDRDRDRERDRERGRERDRRDTKRHSRSRSRSTPVRDRGGRR

Relative to UNC0638 UNC Heavy (G9a and GLP [2]): 0.37 log base 2
Relative to UNC0638 UNC Light (G9a and GLP [2]): 0.14 log base 2
Relative to UNC0638 Average (G9a and GLP [2]): 0.26 log base 2
B2: MATR3 (protein, UniProt P43243 2-847, looked up)
Matrin-3: SKSFQQSSLSRDSQGHGRDLSAAGIGLLAAATQSLSMPASLGRMNQGTARLASLMNLGMSSSLNQQGAHSALSSASTSSHNLQSIFNIGSRGPLPLSSQHRGDADQASNILASFGLSARDLDELSRYPEDKITPENLPQILLQLKRRRTEEGPTLSYGRDGRSATREPPYRVPRDDWEEKRHFRRDSFDDRGPSLNPVLDYDHGSRSQESGYYDRMDYEDDRLRDGERCRDDSFFGETSHNYHKFDSEYERMGRGPGPLQERSLFEKKRGAPPSSNIEDFHGLLPKGYPHLCSICDLPVHSNKEWSQHINGASHSRRCQLLLEIYPEWNPDNDTGHTMGDPFMLQQSTNPAPGILGPPPPSFHLGGPAVGPRGNLGAGNGNLQGPRHMQKGRVETSRVVHIMDFQRGKNLRYQLLQLVEPFGVISNHLILNKINEAFIEMATTEDAQAAVDYYTTTPALVFGKPVRVHLSQKYKRIKKPEGKPDQKFDQKQELGRVIHLSNLPHSGYSDSAVLKLAEPYGKIKNYILMRMKSQAFIEMETREDAMAMVDHCLKKALWFQGRCVKVDLSEKYKKLVLRIPNRGIDLLKKDKSRKRSYSPDGKESPSDKKSKTDGSQKTESSTEGKEQEEKSGEDGEKDTKDDQTEQEPNMLLESEDELLVDEEEAAALLESGSSVGDETDLANLGDVASDGKKEPSDKAVKKDGSASAAAKKKLKKVDKIEELDQENEAALENGIKNEENTEPGAESSENADDPNKDTSENADGQSDENKDDYTIPDEYRIGPYQPNVPVGIDYVIPKTGFYCKLCSLFYTNEEVAKNTHCSSLPHYQKLKKFLNKLAEERRQKKET
3xMBT/D355N UNC Heavy (3×MBT domain of L3MBTL1): 1.72 log base 2
3xMBT/D355N UNC Light (3×MBT domain of L3MBTL1): 1.77 log base 2

Relative to UNC0638 UNC Heavy (G9a and GLP [2]): 0.34 log base 2
Relative to UNC0638 UNC Light (G9a and GLP [2]): 0.18 log base 2
Relative to UNC0638 Average (G9a and GLP [2]): 0.26 log base 2
B3: XRN2 (protein, UniProt Q9H0D6 1-950, looked up)
5'-3' exoribonuclease 2: MGVPAFFRWLSRKYPSIIVNCVEEKPKECNGVKIPVDASKPNPNDVEFDNLYLDMNGIIHPCTHPEDKPAPKNEDEMMVAIFEYIDRLFSIVRPRRLLYMAIDGVAPRAKMNQQRSRRFRASKEGMEAAVEKQRVREEILAKGGFLPPEEIKERFDSNCITPGTEFMDNLAKCLRYYIADRLNNDPGWKNLTVILSDASAPGEGEHKIMDYIRRQRAQPNHDPNTHHCLCGADADLIMLGLATHEPNFTIIREEFKPNKPKPCGLCNQFGHEVKDCEGLPREKKGKHDELADSLPCAEGEFIFLRLNVLREYLERELTMASLPFTFDVERSIDDWVFMCFFVGNDFLPHLPSLEIRENAIDRLVNIYKNVVHKTGGYLTESGYVNLQRVQMIMLAVGEVEDSIFKKRKDDEDSFRRRQKEKRKRMKRDQPAFTPSGILTPHALGSRNSPGSQVASNPRQAAYEMRMQNNSSPSISPNTSFTSDGSPSPLGGIKRKAEDSDSEPEPEDNVRLWEAGWKQRYYKNKFDVDAADEKFRRKVVQSYVEGLCWVLRYYYQGCASWKWYYPFHYAPFASDFEGIADMPSDFEKGTKPFKPLEQLMGVFPAASGNFLPPSWRKLMSDPDSSIIDFYPEDFAIDLNGKKYAWQGVALLPFVDERRLRAALEEVYPDLTPEETRRNSLGGDVLFVGKHHPLHDFILELYQTGSTEPVEVPPELCHGIQGKFSLDEEAILPDQIVCSPVPMLRDLTQNTVVSINFKDPQFAEDYIFKAVMLPGARKPAAVLKPSDWEKSSNGRQWKPQLGFNRDRRPVHLDQAAFRTLGHVMPRGSGTGIYSNAAPPPVTYQGNLYRPLLRGQAQIPKLMSNMRPQDSWRGPPPLFQQQRFDRGVGAEPLLPWNRMLQTQNAAFQPNQYQMLAGPGGYPPRRDDRGGRQGYPREGRKYPLPPPSGRYNWN
3xMBT/D355N UNC Heavy (3×MBT domain of L3MBTL1): 2.19 log base 2
3xMBT/D355N UNC Light (3×MBT domain of L3MBTL1): 2.76 log base 2
